These results are taken from the supplement of paper PMC9170038.

This data set relates to MS2 coat protein. As to the kind of experiment: apparent KD of MS2 coat protein; designed switch direction (-1 OFF switch, 1 ON switch): -1; higher = weaker reporter binding. In short, it runs like this: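 RNA switches sharing common flanks were transcribed by stalled E. coli RNA polymerase on Illumina chips. A doubling series of SNAP-549-labelled MS2 coat protein, from 0.7 or 1.5 nM to 3 µM, was applied in Tris-HCl pH 7.5 buffer with KCl, MgCl2, BSA, DTT, tRNA and Tween-20. Each step lasted 0.8–1.5 h at the bottom of the series and 10–20 min at the top. Normalised cluster fluorescence was curve-fitted, giving apparent KD as the per-design median over clusters.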

The mark [1] stands for this setting: input ligand: microRNA oligo, concentration not stated.
The mark [2] stands for this setting: Eterna round: R95, input ligand: FMN 200 uM.
Setting [3] is: Eterna round: R95, input ligand: microRNA oligo, concentration not stated.
Where [4] appears, read: Eterna round: R95, input ligand: none.

On to “GGCGACCUAGGAUAUACAUGAGGAUCACCCAUGUUUAUCUAUUAGAUGAAGACGGGUUGUAGAAGGAGGAUAUU [JL Geriin mod] (Eterna round: R96, puzzle: Exclusion 3)”, for which the “apparent KD of MS2 coat protein” value is, setting by setting: (input ligand: FMN 200 uM) 19.5 nM; under setting [1], 14.6 nM; (input ligand: none) 20.2 nM.
Regarding “UUAUUAUAUGUAGGAUAUGCGUAUUAUUGUUAUGCAGAAGGACAUGAGGAUCACCCAUGUAUAUUAUUGUUAUAUAUUGUAUAU [Title] (Eterna round: R96, puzzle: Exclusion NG 1)”, the “apparent KD of MS2 coat protein” value (input ligand: FMN 200 uM) was found to be 28.9 nM, the “apparent KD of MS2 coat protein” value under setting [1] turned out to be 19.8 nM and the “apparent KD of MS2 coat protein” value (input ligand: none) was 21.7 nM.
With “AUUGUGUUAGGAUAUGCUUAUGGUGGGUAGUCCAGUAUGGAGUAGAAGGGACAUGAGGAUCACCCAUGUGCUCA [EX4 #38] (Eterna round: R97, puzzle: Exclusion 4)”, the “apparent KD of MS2 coat protein” value by setting is: (input ligand: FMN 200 uM) 215 nM; (input ligand: none) 137 nM.
On to “CCGACCUGAGGAUAUAGCGUCCGCGACAUGAGGAUCACCCAUGUCCCUCAUAACGUAAAACUAGAAGGUAGAGUCG [Eternabot (L1) Solution 75] (Eterna round: R97, puzzle: Exclusion 5)”, for which the “apparent KD of MS2 coat protein” value is 29.8 nM (input ligand: FMN 200 uM) and 25.7 nM (input ligand: none).
Take “CUGAGCAGACGGAGAUCCAACAUGAGGAUCACCCAUGUCUCAAAAGCUUUUUGCUUGUCUUAUCCUCCUCUGUUCAC [Esqutian] (puzzle: Sensor v3, turn-off variant 1)”: the “apparent KD of MS2 coat protein” value was determined as 14 nM under setting [2], 390 nM under setting [3] and 12.3 nM under setting [4].
Turning to “GCAUUUGAGCAGGAUAUAGCCUGAACAUAAUGGUUAGAAGGGCUCACAUGAGGAUCACCCAUGUGGUGUCCUAA [Rateria] (puzzle: Exclusion 6)”, the “apparent KD of MS2 coat protein” value under setting [3] stood at 11.6 nM.
For the sequence “GCUGGUCGAGGAUAUACAUGAGGAUCACCCAUGUGAUUAGCAGUCCUCGGACUGCAAUGUAGAAGGUGACCAGC [E3/2-B1] (Eterna round: R97, puzzle: Exclusion 3)”, the “apparent KD of MS2 coat protein” value is 907 nM (input ligand: FMN 200 uM) and 198 nM (input ligand: none).
For the sequence “GGAUAUAACGUAGGAUAUCUGAGAAAUAGAUGAAGAGAAGGACGACAUGAGGAUCACCCAUGUGAUCUAUCAAUAUUAUACAUG [Prohibition 100 - Jieux - Exclusion NG 1] (Eterna round: R96, puzzle: Exclusion NG 1)”, the “apparent KD of MS2 coat protein” value under setting [1] is 332 nM.
Turning to “AGCUGUGGCCGAGGAUAUACAUGAGGAUCACCCAUGUUACAUAAUUCGACAUGAGAAUACGAACCGUAGAAGGCGGUCUCAGCA [Eli eng2 - 002] (Eterna round: R96, puzzle: Exclusion NG 2)”, the “apparent KD of MS2 coat protein” value was 127 nM (input ligand: FMN 200 uM), 37.8 nM under setting [1] and 66.1 nM (input ligand: none).
“CGGAGCAGAGGGAGAUCCAACAUGAGGAUCACCCAUGUCUCACAAGCUUUUUGCUCAUCUUAUUGUACCUUGGUGCU [JL ViennaUCT Edcesobi mod 6] (puzzle: Sensor v3, turn-off variant 1)”: the “apparent KD of MS2 coat protein” value came to 40.5 nM under setting [2], 10.1 nM under setting [3] and 46.8 nM under setting [4].
Taken in the same sequence, the figures for “UACCGGCGGACCGAAGCUUUUUGCUCGUCUUAUACUACAACAUGAGGAUCACCCAUGUGGUGGUGGUCCGUUGUAGU [JL ViennaUCT Bitein mod 4] (puzzle: Sensor v3, turn-off variant 2)” were 20.2 nM, 15.7 nM and 13.5 nM.
With “GUCAGCUCGUCAGGAUAUACAUGAUAGAUCGAUUAAUUAAUUAAUUUAACAUGAGGAUCACCCAUGUAGAAGGGACGAGCUGAC [ENG2/1-B1] (Eterna round: R96, puzzle: Exclusion NG 2)”, under setting [1], the “apparent KD of MS2 coat protein” value worked out at 39.8 nM.
As to “CUUUUGUGAGGAUAUUCGUAGUAAAUGAAUAAAAUUAUUACGGAGAAGGCACAUGAGGAUCACCCAUGUUCCUU [Mat - Exclusion 4 - Eli Mod - D32] (Eterna round: R97, puzzle: Exclusion 4)”, the “apparent KD of MS2 coat protein” value was 53.2 nM (input ligand: FMN 200 uM) and 16.7 nM (input ligand: none).
With “AGCCAAGCAGGAUAUACCCGGGAUAACAUGAGGAUCACCCAUGUGACCGAUUGAUGUCCUGUAGAAGGGCUUGGGA [Mod of ViennaUCT 21 - Jieux - Exclusion 5] (Eterna round: R97, puzzle: Exclusion 5)”, the “apparent KD of MS2 coat protein” value was found to be 78.1 nM (input ligand: FMN 200 uM) and 28.3 nM (input ligand: none).
With “GCACGGAUGGUAGGAUAUCAGUGCGAUUAGCUCUGAGAAGGACCACAUGAGGAUCACCCAUGUACCUCAAUUAUCCUUCCGUGC [Eli exng1 - 022] (Eterna round: R96, puzzle: Exclusion NG 1)”, the “apparent KD of MS2 coat protein” value is, setting by setting: (input ligand: FMN 200 uM) 13.8 nM; under setting [1], 11.3 nM; (input ligand: none) 17.7 nM.
On to “GCAGGCGUCUAGGCUCGUCUUAUUUUGAGAAGAUUGAUAACAUGAGGAUCACCCAUGUUUGUGGGAGAGUUGGAGUG [JR_SV3TOV2_Sub014] (puzzle: Sensor v3, turn-off variant 2)”, for which the “apparent KD of MS2 coat protein” value is 159 nM under setting [2], 258 nM under setting [3] and 209 nM under setting [4].
Consider “UCGCUGCGAGGAUAUACGUGCGCGCGCUCGCGUUCGCGCGUACAUGAGGAUCACCCAUGUAGAAGGCGCGCUGC [Apr-15 SS2-5] (puzzle: Exclusion 2)”, for which, under setting [3], the “apparent KD of MS2 coat protein” value is 11.1 nM.
For the sequence “CAUUAUGUUGAGGAUAUGCACCAGCUCACUGACGCAGAAGGCGACACAUGAGGAUCACCCAUGUCAGUUCGCGU [salish99_ex6_r004_429] (Eterna round: R97, puzzle: Exclusion 6)”, the “apparent KD of MS2 coat protein” value came to 23.5 nM (input ligand: FMN 200 uM) and 17 nM (input ligand: none).
With “UAUUACAAGCGAAGAUCCCACAUGAGGAUCACCCAUGUGCUCGUCUUAUAAGGUACUGUGACGAAAGUCACGGUACC [Sensor 3, v1 - 91 v16] (Eterna round: R97, puzzle: Sensor, turn-off variant 1)”, the “apparent KD of MS2 coat protein” value by setting is: (input ligand: FMN 200 uM) 32.7 nM; (input ligand: none) 31.1 nM.
As for “CCGGAUAUGCAGGAUAUCGUAUCGGAAACGAUACGAGAAGGGUAUACAUGAGGAUCACCCAUGUGUCCUACCGG [Fiskers Ex 6 - 20] (puzzle: Exclusion 6)”, under setting [3], the “apparent KD of MS2 coat protein” value stood at 23.8 nM.
As to “CUGGAAAACGAGGAUAUGCACCGGCUCGCUGACGCAGAAGGCGACACAUGAGGAUCACCCAUGUCGGUACGCGA [salish99_ex6_r004_449] (Eterna round: R97, puzzle: Exclusion 6)”, the “apparent KD of MS2 coat protein” value (input ligand: FMN 200 uM) is 17.2 nM and the “apparent KD of MS2 coat protein” value (input ligand: none) stood at 18.8 nM.
Consider “AUCAGCUCGUGAGGAUAUACAUGCGUGCUUCGGCACGAAUUUAAGAUCACAUGAGGAUCACCCAUGUAGAAGGCACGAGCUGAU [ENG2/3-A3] (Eterna round: R96, puzzle: Exclusion NG 2)”, for which the “apparent KD of MS2 coat protein” value by setting is: (input ligand: FMN 200 uM) 1880 nM; under setting [1], 538 nM; (input ligand: none) 520 nM.
As for “CCCACAAGCUUUUUGCUCGACAUGAGGAUCACCCAUGUUGAAUGGGUUAUAUGUGUGUGAUACAUAUAUAUGUACCU [-24.7, -47.9 kcal, A 26%] (Eterna round: R97, puzzle: Sensor, turn-off variant 1)”, the “apparent KD of MS2 coat protein” value runs as follows: (input ligand: FMN 200 uM) 23.2 nM; (input ligand: none) 23.5 nM.
On to “UACACCACAUGAGGAUCAAACAUGAGGAUCACCCAUGUGUAGCAAGCUUUUUGCUCGUCUUAUAAAUAUGUGGUGUA [Electric Eye 7 - Jieux - Sensor, turn-off variant 1] (Eterna round: R97, puzzle: Sensor, turn-off variant 1)”, for which the “apparent KD of MS2 coat protein” value (input ligand: FMN 200 uM) came to 11.7 nM and the “apparent KD of MS2 coat protein” value (input ligand: none) stood at 11.9 nM.
Take “UAAAAGAAGGUCAGGAUAUGUAGUGAGCAAUCAGGACAGAAGGGACAUGAGGAUCACCCAUGUAACAGGGUAAA [Eninares] (puzzle: Brourd's mod of Exclusion 4)”: the “apparent KD of MS2 coat protein” value by setting is: under setting [2], 104 nM; under setting [3], 44.6 nM; under setting [4], 43.1 nM.
“CCUAUGUGAGGAUAUCACUGGUCUUCUCACUGGAUGACCAGUGAGAAGGCACAUGAGGAUCACCCAUGUCGGUG [Ex4 - 3 - 50] (puzzle: Exclusion 4)”: under setting [3], the “apparent KD of MS2 coat protein” value was determined as 312 nM.
On to “UUGUUGUAUGUAGGAUAUGCAUAUUGUUAUUAUGCAGAAGGACAUGAGGAUCACCCAUGUAUAUUAUUAUUAUAUGUUAUAUAU [Title] (Eterna round: R96, puzzle: Exclusion NG 1)”, for which, under setting [1], the “apparent KD of MS2 coat protein” value amounted to 17.9 nM.
Turning to “AGUACUGAGCAGGAUAUAUACAGGAUGCCCUCUGUAGAAGGGCUAACAUGAGGAUCACCCAUGUCCUAUAUGGC [Eternabot (L2) Solution 56] (Eterna round: R97, puzzle: Exclusion 6)”, the “apparent KD of MS2 coat protein” value runs as follows: (input ligand: FMN 200 uM) 39 nM; (input ligand: none) 49.1 nM.
Consider “AAAAGACAAGGAUAUACUUGGAAAAUAAAGCUUGAGGAAGUACUUGAGGAUCACCCAAGUAGAAGGUGUAGGCG [Edtiisre] (Eterna round: R97, puzzle: Exclusion 2)”, for which the “apparent KD of MS2 coat protein” value is 37.7 nM (input ligand: FMN 200 uM) and 31.5 nM (input ligand: none).
Turning to “UUGUUAUAUGUAGGAUAUGCAUAUUAUUAUUAUGCAGAAGGACAUGAGGAUCACCCAUGUAUGUUGUUGUUAUAUAUUAUAUAU [Title] (Eterna round: R96, puzzle: Exclusion NG 1)”, under setting [1], the “apparent KD of MS2 coat protein” value was 17.9 nM.
On to “GUUAUGUCAGGAUAUGCUAAUGAUGAAUGAUCAGACAUAAUGUAGAAGGGACAUGAGGAUCACCCAUGUAAUAU [EX4 #6] (Eterna round: R97, puzzle: Exclusion 4)”, for which the “apparent KD of MS2 coat protein” value is, setting by setting: (input ligand: FMN 200 uM) 29.4 nM; (input ligand: none) 23.3 nM.
